# Measurements from the nanobody polyreactivity screen of Harvey et al. (2022).
# Experiment: yeast display, Sf9 membrane polyspecificity reagent, FACS + sequencing; frameworks hold sequencing errors
# Outline: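 Nanobodies from a synthetic yeast display library (Saccharomyces cerevisiae BJ5465), induced 36–48 hours with galactose, were stained 1 hour at 4 °C with 10% biotinylated, detergent-solubilized Sf9 membrane reagent, enriched on streptavidin microbeads, then FACS-sorted. Anti-HA (expression) and streptavidin (reagent binding) fluorescence set low and high (top ~1%) gates. Polyreactivity labels come from the gate of origin. Genes were colony-PCR amplified, MiSeq 2 × 250 sequenced and filtered by CDR length.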
row,Sequence,polyreactivity (PSR sort gate)
1,QVQLVESGGCLVQAGGSLRLSCAASGFTFPNAMGWYIQAPGKERELDATISSSGGSTYYADSVKGRFTISRDNAKNTVYLQMNSLKPEDTAVFYCAARTRQYLIYRAYRYDYWGQGTQVTVSS,low polyreactivity
2,QVQLVESGGGLVQAGCSHRLSCSSTGRTFYIYDMGRYRQAPGKERELVAVISWSGGDTNYADSVKGRFRISRDNAKNTVYLQMNSLKPEDTAVYYCAATRRDRRKSFTYRYDYWGQGTQVTVSS,high polyreactivity
3,QVQLVESGGGLVQAGGSLRLSCAASGIIFTRNAKGWSRQAPGKERELVAAISRSGGRTSYADSVKGRFTISRDNAKNTVYLHMNSLKPEDTEVYYCYARTTSGWGQGTQVTVSS,high polyreactivity
4,QVQLVESGGGLVQAGGRLRLSCAASGRTLGVYTMGWYRQAPGKERELVATISYNGGSTYYADSVKGRFTISRDNAKNTVYLQMNSLKPEDTAVYYCAKAYDTTLTYNYWGQGTQVTVSS,low polyreactivity
5,QVQLVESGGGLVQAGGSLRLSCAASGIIFQSYTMGWYRQPPGKERELVAAIDSGGSTYYADSVKGRFTISRDNAKNTVYLQMNSLKPEDTAVYYCATDYPLSWSPLYDYDYWGQGTQVTVSS,low polyreactivity
6,QVQLVESGGGLVQAGGSLRLSCASSGRIFYGYAMVWYRQAPGKERELVAAIRWYGGNTYYADSVKGRFTISRDNAKNTVYLQMNSLKPEDTAVYYCAARAYYARFVMGYWGQGTQVSVSS,high polyreactivity
7,QVQLVESGGGLVQAGGSLRLSCAAYGSTLAGYAMGWYRQAPGKERELVAAIDWTGGSTTYADSVKGRFTISRDNAKNTVYLQMNSLKPEDTAVYYCNVDLGVNGDYWGQGSQVTVSS,low polyreactivity
8,QVQLVESGGGLVQAGGSLRLSCAASGFILNKNVMGWYRQAPGKERELVAAITGSGGRTYYADSVKGRFSISRDNAKNTVYLQMNSLKPEDTAVYYCAARRPLVRYIMGYWGQGTQVTVSS,high polyreactivity
9,QVQLVETGGGLVQAGGSLRLSCAASGLIFRNNVMGWYRQAPGKERELVAAIRESGGRTYYADSVKGRFTISRDNAKNTVYLQMNSLKPEDTAVYYCAADSRVGFGRLYGYWGQGTQVTVSS,high polyreactivity
10,QVQLVESGGGLVQAGGSLRLSCAASGYIFDWNAMGCYRQAPGKERELVAAISSGGRTNYADSVKGRFTISRDNAKNTVYLQMNSLKPEDTAVYYCNTGPYTFDSPEYYYWGQGTQVTVSS,low polyreactivity
11,QVQLVESGGGLVQAGGSLRLTCAASGFIFRKYTMGWYRQAPGKERELVATLDSSGGSTYYADSVKGRFTISRDNAKNTVYLQMNSLKPEDTAVYYCNADLRELSPWYWYSGEMDYWGQGTQVTVSS,low polyreactivity
12,QVQLVESGGGLVQAGGSLRLSCAASGRIFPWYAMGWYRQAPGKERELVAAIKWDSGSTYYADSVKGRFTISRDNAKNTVYLQMNSLKPEDTAVYYCAAEYVAWYYGLYFSYDYWGQGTQVTVSS,high polyreactivity
13,QVQLVESGGGLVHAGGSLRLSCAASGFIFAANAKGWYRQAPGKERELVAAINYRGSSTYYADSVKGRFTISRDNAKNTVYLQMNSLKPYDTAVYYCAAVSSIYSGYGYWGQGTQVTVSS,high polyreactivity
14,QVQLVESGGGLVQAGGSLRLSCAASGSTFRFNAMGWYSQAPGKERELVAAITGIGGITYYADSVKGRFTISRDNAKNTVYLQMNSLKPEDTAVYYCNAVAARYSVRNGYSTHYDYWGQGTQVTVSS,high polyreactivity
15,QVQLVESGGGLVQAGGSLRLSCAASGRIFVINAMGLYRQAPGKERELVADITWSGGSTYADSVKGRFTISRDTAKNTVYLQLNSLKPEDTAVYYCAAVYLRVDRYLQVYRYDYWGQGTQVTVSS,high polyreactivity
16,QVQLVESGGGLVQAGGSLRLSCAASGRIFVGYAMGWYRQAPGKERELVAAISRSGARTYYADSVKGRFTISRAIAKNTVYLQMNSLKPVDTAVYYCNTVKVLIYSWGQGTQVTVSS,high polyreactivity
17,QVQLEESGGGLVQAGGSLRLSCAASGRILAKYAMGWYRPAPRKEREFVDAISYSGGSTYYADSVKGRFTISRDNAKNNVYLLMNRLKPEYTAVYYCAASSYVLYRTRKMYFWGQGTQVTVSS,high polyreactivity
18,QVQLVESGGGLVQAGGSLRLSCAASGSIFSYYAMGWYRQAPGKERELVADITVRGGSTYYADSVKGRFTISRDNAKNTVYLQMNSLIPEDTAVYYCAADWLDESFSYGPYYYWGQGTQVTVSS,low polyreactivity
19,QVQLVESGGGLVQAGGSLRLSCAASGLTFRYYSMGWYRQAPGKERELVAAISRRSGSTYYADSVKGRFTISGDNAKNTVYLQMNSLKPEDTAVYYCNADSTITGNLKRYDYWGQGTQVTVSS,high polyreactivity
20,QVQLVESRGGLVQAGGSLRLICAASANNYRYAMGWYRQAPAKEREFVAAISRGGSTFYADSVKGRFTISRDNAKNTVYEQMNRLKPEDSAVFYCDKERYNVYYYSGQGTQVTVSS,high polyreactivity
21,QVQLVESGGGIVQAGGSLRLSCAASGRNFYYYAMGWYRQAPGKERELVAAISWSGGRTYYADSVKGRFTISRDNAKNTVYFQMNSLKPEDTAVYYSNAEPPRGYSVSSGGEMDYWGQGTEVTVSS,low polyreactivity
22,QVQLVESGGGLVQAGGSLRLSCAASGRIFYIYTMGWYRQAPGKEREFVAGINWNGGSTYYADSVKGRFTISRDNAKNTVYLQMISLKPEDSEVYYCNADQYWDRYYYWGQGTQVTVSS,low polyreactivity

row,Sequence,polyreactivity (PSR sort gate)
1,QVQLVESGGGLVQAGGSLRLSCAASGLTFYHYDMGWYRQAPGKERELVAAINFSAGITYYADSVKGRFTISRDNAKNTVYLQMNSLKPEDTAVYYCAAEPEWWWRGYGYWGQGTQVTVSS,low polyreactivity
2,QVQLVESGGGLVQAGVSLRLSCAASGGTFPKYTMGWYRQAPGKERELVAAITSRGTRTYYADSVKARFTISRDNAKNTVYLQMNSLKTEDTAVYYCAAYFDRHRYDYWGQGTQVTVSS,high polyreactivity
3,QVQLVESGGGLVQAGGSLRLSSAASGRMFHFNAMGWYRQARGKERELVARITFSGGSTYYADSVKGRFTISRDNAKNTVYLQMNSLKPEDTAVYYCAVDAPPIFYEGGDYWGQGTQVTVSS,low polyreactivity
4,QVQLVESGGGLVQAGGSLRLSCAASGSIFDVYAMGWYRQAPGKERELVATISNSAGSTYYADSVKGRFTISRDNAKKTVYLQMNSLKPEDTAVYYCAAVVLYFEEYDYWGQGTQVTVSS,low polyreactivity
5,QVQLVESGGGLVQAGGSLRLSCAASGFIFARYAMGWYRQAPGKERELVASITGRGTSTRYADSVKGRFTISRDNAKNTVYLQMNSLKPEDTAVFYCNAARLSYSWVPSEMDYWGQGTQVTVSS,high polyreactivity
6,QVQLEESGGGLVQAGGSLRLSCAASGRTFGYYAMGWYRQAPGKERELVAAISTRSGSTYYADSVKGRFTISRDNAKNTVYLQMISLKPEDTAVYYCAADSYPDYDYWGQGTQVTVSS,low polyreactivity
7,QVQLVESGGGLVQAGGSLRLSCAASGSTSPAYAMGWYRQAPGKERELVAVITGSGASTYYADSVKGRFTISRDNAKNTVYLQMNSMKPEDTAVYYCAADVGFGVVFYDYWGQGTQVTVSS,low polyreactivity
8,QVQLVESGGGLVQAGGSLRLSCAASGFTFYGNAMGWYRQAPGKERELVSAISYNGGSTYYADSVKGRFTISRDNAKNTVYLQMNSLKPEDTAVYYCAAGYYWQYTSSSAQYAYDYWGQGTQVTVSS,low polyreactivity
9,QVQLVESGGGLVQAGGSLRLSCASYGRIIGIYAMGWSRPAHGKERELVATITDSDDSTYYADSVKGRFTISRDNAKNTVYLQMNSLKPEDTAVYFCATAFSYGGGAYDYWGHGTQVTVSS,low polyreactivity
10,QVQLVESGGGLVQAGGSLRLSCAASGITLVRYAMGWNRKAPGKEREFVASITSGASTNYADSVKGRFTISRYNAKNTVYLQMNSLKPDDTAVYYCAAGPPSGGWWGGWYEYWGQGTQVTVSS,high polyreactivity
11,QVQLVESGGGLVQAGGSLRLSCAASGRIFYRYAMGWYRQAPGKERELVAAISGSVGSTYADSVKGRFTISRDNAKNTVYLQMNSLKPEDTAVYYCARETYRRYGAYDYWGQGTQVTVSS,low polyreactivity
12,QVQLVESGGGLVQAGGSLRLSCAASGRIFSYNAMGWYRQAPGKERELVAAISSDGSTYYADSVKGRFTISRDNAKNTVYLQMNRLKPEDTAVYYCAAYPRVNGNIHSTGDYWGQGTQVTVSS,low polyreactivity
13,QVQLVESGGGLVQAGGSLRLSCAASGFTFYGYAMGWYRQAPGKERELVAAISTRGSRTYYADSVKGRFTISRDNSKNTVYLQMNSLKPEDTAVYYCAARKKHSGYGRGNYWGQGTQVTVSS,high polyreactivity
14,QVQLVESGGGLVQAGGSLSLSCAASGRIFYKYAMGWYRQAPGKESELVAAINTSGGRTYYADSVKGRFTISRDNAKNTVYLQMNSLKPEDTAVYYCKAVGSAYTAYDYWGQGTQVTVSS,high polyreactivity
15,QVQLVESGGGLVQAGGSLRLSCAASGFIIRRYAMGRYRQAPGKEREMVASIDRSGASTYYADSVKGRLTISRDNAKYTVYLQMNSLKPEDTAVYYCNKAFAWTGWYSVQGDYWGQGTQVTVSS,high polyreactivity
16,QVQLVESGGGLVQAGGSLRLSCAASGITFKPYGMGWYRPAPGKERELVADITSGGITYYADSVKGRFTISRDNAKNTVYLQMNSLKPEDTAVYYCATGDLFVYYWGYVVRLYDYWGQGTQVTVSS,low polyreactivity
17,QVQLVESGGGLVQAGGSLRLSCAASGITFSYNVMGWYRQAPGKEREFVAAISDGGSTYYADSVKGRFTISRDNAKNTVYLQMNSLKPEDTAVYFCAKGYRYTYSQQVIYDYYYWGQGTQVTVSS,low polyreactivity
18,QVQLVESGGGLVQAGGSLRLSCAASGRTFRYNAMGWYRQAPGKERELVASITSGGSTNYADSVKGRFTISRDNAKNTVYLQMNSLKPEDTAVYYCAADERRPYWLHSIGSGRPFDYWGQGTQVTVSS,low polyreactivity
19,QVQLVESGGGLVQAGGSLRLSCAASGRIFFLYAMGWYRQAPGKERELVASITRRGGSTYYADSVKGRFTISRDNAKNTVYLQMKSLKPEDTAVYYCAAELYRSNVYHYDYWGQGTQVTVSS,high polyreactivity
20,QVQLEESGGGLVQAGGSLRLTCAASGFIFQYYTMGWYRQAPGKERELVASITGTGGSTYYADSVKGRFTISRDNAKNTVYLQMNSLKPEDTAVYYCAAREGWGYEYDYWGQGTQVTVSS,high polyreactivity
21,QVQLVESGGGLVQAGGSLRISCAATGRIFGPYTMGWYRQAPGKERELVARISRRGGSTYYADSVKGRFTISRDNAKNTVYFQMNSLKPEDTAVYYCARSQAVYDGWFAKFGYWGQGTQVTVSS,high polyreactivity
